Where a SMILES comes first, the peptide text is derived from it. The star is where a group is joined. Cbz = O=C(OCc1ccccc1)*
Key:
Type in all cases: cell-based
PINK1 = PINK1 accumulation by fractionation and immunoblotting
From the text: (§1) For PINK1 experiments, cells were fractionated using the Mitochondria Isolation Kit (Pierce), according to manufacturer's specifications with slight modifications. To isolate integral membrane proteins, membrane fractions obtained as above were carbonate extracted with 0.1M Na2CO3 fresh cold buffer and membranes were pelleted, as described in the supplemental methods. For Parkin experiments, cells were fractionated as described previously, with minor modifications described in the supplemental methods (Narendra (2008) J Cell Biol 183: 795-803). The following primary antibodies were used: anti-Parkin (PRK8) monoclonal (Santa Cruz), anti-Tom20 polyclonal (Santa Cruz), anti-cytochrome c monoclonal (BD Biosciences), anti-PINK1 polyclonal (Novus Biologicals), anti-VDAC monoclonal (Calbiochem), anti-GAPDH polyclonal (Sigma-Aldrich), anti-Tubulin monoclonal (Sigma-Aldrich), anti-V5 monoclonal (Invitrogen), anti-GFP polyclonal (Invitrogen).
as §1, with “with slight modifications described in the supplemental methods. To isolate” for “with slight modifications. To isolate”, “minor modifications detailed in the” for “minor modifications described in the”, “supplemental methods (Narendra (2008) J Cell Biol 183: 795-803). The protease protection assay was performed as described previously (Chen (2005) J Biol Chem 280: 26185-26192). Cells were fixed and immunostained as described previously (Narendra (2008)” for “supplemental methods (Narendra (2008)”, “anti-GFP polyclonal (Invitrogen), anti-TIM23 monoclonal (BD Biosciences), and anti-Hsp60 monoclonal (Stressgen).” for “anti-GFP polyclonal (Invitrogen).”

HeLa cells [1] = experiment: Mitochondrial translocation of Parkin by imaging (Examples 4 and 5); settings: HeLa stably expressing YFP-Parkin, MG132 for 8 hrs
Procedure: Cells were cultured in borosilicated chamber slides for imaging, 6-well plates for whole cell lysates, and 100 or 150 mm culture dish for subcellular fractionation. One day after seeding, cells were transfected with indicated constructs using Fugene HD (Roche) or Lipofectamine 2000 (Invitrogen) according to the manufacturer's guidelines.
For immunocytochemistry, cultured cells in borosilicated chamber slides were fixed with 4% paraformaldehyde in PBS (USB) and permeabilized with the indicated detergent. After 30 min blocking with 10% BSA in PBS, cells were stained with the following primary antibodies: antiTom20 polyclonal antibody (Santa Cruz Biotechnology, Inc.) and anti-cytochrome C monoclonal antibody (BD), or anti-Tom20 monoclonal antibody (BD) and anti-GFP polyclonal antibody (Invitrogen) and then with the following secondary antibodies: goat anti-mouse/rabbit IgG antibody conjugated with Alexa Fluor 594/647, respectively. In case of live cell imaging, cells were pulsed with 600 nM TMRE for 5 min to evaluate mitochondrial membrane potential or 10 nM Mitotracker Red for 30 min to see the mitochondrial morphology. Cells were imaged using an inverted microscope (LSM510 Meta; Carl Zeiss) with 63×/1.4 oil DIC Plan Apo objective. Image contrast and brightness were adjusted in LSM image browser (Carl Zeiss).

HeLa cells [2] = experiment: Parkin colocalization with mitochondria scored by confocal microscopy; settings: for YFP-Parkin (wild type or indicated mutant) colocalization with mitochondria, % of cells: HeLa cells, 1 hour
Procedure, shortened: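 Transfected HeLa cells fixed 12–24 h post-transfection in 4% paraformaldehyde. Cells immunostained for mitochondrial markers and imaged by confocal microscopy. Parkin recruitment to mitochondria assessed by line-scan colocalization.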

HeLa cells [3] = experiment: Parkin in mitochondria-rich membrane fraction, immunoblot; settings: for translocation of YFP-Parkin variant to mitochondria-rich membrane fraction: HeLa, CCCP 1 hr, Western blotting
From the text: as §1
as §1, with “with slight modifications described in the supplemental methods. To isolate” for “with slight modifications. To isolate”, “minor modifications detailed in the” for “minor modifications described in the”, “supplemental methods (Narendra (2008) J Cell Biol 183: 795-803). The protease protection assay was performed as described previously (Chen (2005) J Biol Chem 280: 26185-26192). Cells were fixed and immunostained as described previously (Narendra (2008)” for “supplemental methods (Narendra (2008)”, “anti-GFP polyclonal (Invitrogen), anti-TIM23 monoclonal (BD Biosciences), and anti-Hsp60 monoclonal (Stressgen).” for “anti-GFP polyclonal (Invitrogen).”

HeLa cells [4] = experiment: Parkin-induced mitophagy, loss of mitochondria by immunocytochemistry; settings: HeLa expressing YFP-Parkin variant, CCCP 24 hours
Procedure: Cultured cells seeded in borosilicate chamber slides (Thermo Fisher Scientific) were transfected or cotransfected with YFP-Parkin, ECFP-Parkin, mCherry-Parkin, DsRed-Mito (Clontech Laboratories, Inc.), pcDNA3.1 (Invitrogen), vMIA, and/or Drp1K38A constructs using Fugene 6 (Roche). Parkin-myc was a gift from M. Cookson (National Institutes of Health, Bethesda, Md.). Cells were fixed 12-24 hours after transfection with 4% paraformaldehyde in PBS. Cells were stained with following primary antibodies: mouse monoclonal cytochrome c (BD), rabbit polyclonal Tom20 (Santa Cruz Biotechnology, Inc.), mouse monoclonal Parkin PRK8 (Santa Cruz Biotechnology, Inc.), rabbit polyclonal PMP70 (Invitrogen), and/or mouse monoclonal TRAP1 (Abcam); and with the following secondary antibodies: mouse and/or rabbit Alexa 488, 594, and 633 (Invitrogen). For assessment of mitochondrial membrane potential, cells were pulsed with 50 nM Mito-Tracker red (Invitrogen) for 15 min, washed, and incubated for an additional 10 minutes before fixation or imaging. For assessment of cell metabolic potential, cell nuclei were stained with Hoechst 33342 (Invitrogen).
(§2) Confocal microscopy of fixed samples, scoring of Parkin recruitment and Parkininduced mitophagy, and live cell imaging were performed as described previously (Narendra (2008) J Cell Biol 183: 795-803). Experiments in Mfn1/2 null cells were performed as described previously with minor modifications.
as §2, with “Parkin-induced” for “Parkininduced”, “imageing” for “imaging”, “modifications described in the supplemental methods (Narendra (2008) J Cell Biol 183: 795-803).” for “modifications.”

CC(C)C[C@@H](C=O)NC(=O)[C@H](CC(C)C)NC(=O)[C@H](CC(C)C)NC(=O)OCc1ccccc1 [MG132, reference compound] (Cbz-Leu-Leu-Leu-aldehyde)
appearance of short form of PINK1 (PINK1; HeLa treated with vehicle, 50 μM MG132 for final hour): ˜52 kDa band appears | mitochondrial translocation of Parkin (HeLa cells [1]): no mitochondrial translocation of Parkin was detected

C[C@@H]1C[C@@H]([C@H](O)CC2CC(=O)NC(=O)C2)C(=O)[C@@H](C)C1 [cycloheximide, reference compound]
effect on abundance of accumulated full length PINK1 (PINK1; HeLa, after 3 hours CCCP, continuous CCCP): little effect | effect on depolarization-induced accumulation of endogenous PINK1 (PINK1; HeLa, cycloheximide 90 minutes, CCCP 60 minutes, whole cell lysates and membrane fraction): blocked | effect on CCCP-induced Parkin recruitment to mitochondria (HeLa cells [2]; HeLa cells expressing YFP-Parkin, added together with CCCP): blocked | YFP-Parkin colocalization with mitochondria, % of cells (HeLa cells [2]; HeLa, 10 μM CCCP 1 hr+100 μM CHX (30 minutes pretreatment)): 11.3±4.2% | effect on YFP-Parkin accumulation in mitochondrial enriched heavy membrane fraction (HeLa cells [3]; HeLa YFP-Parkin, CCCP plus cycloheximide): blocked

CC(C)[C@@H]1NC(=O)[C@H](C)OC(=O)[C@@H](C(C)C)NC(=O)[C@@H](C(C)C)OC(=O)[C@H](C(C)C)NC(=O)[C@H](C)OC(=O)[C@@H](C(C)C)NC(=O)[C@@H](C(C)C)OC(=O)[C@H](C(C)C)NC(=O)[C@H](C)OC(=O)[C@@H](C(C)C)NC(=O)[C@@H](C(C)C)OC1=O [valinomycin]
endogenous full length PINK1 (˜63 kDa) level after depolarization (PINK1; HeLa cells, mitochondrial membrane fraction, 10 μM CCCP or 1 μM valinomycin): increased

B1: R275W: YFP-Parkin mutation in RING1 (protein, UniProt O60260 1-465, looked up, variant R275W)
E3 ubiquitin-protein ligase …: MIVFVRFNSSHGFPVEVDSDTSIFQLKEVVAKRQGVPADQLRVIFAGKELRNDWTVQNCDLDQQSIVHIVQRPWRKGQEMNATGGDDPRNAAGGCEREPQSLTRVDLSSSVLPGDSVGLAVILHTDSRKDSPPAGSPAGRSIYNSFYVYCKGPCQRVQPGKLRVQCSTCRQATLTLTQGPSCWDDVLIPNRMSGECQSPHCPGTSAEFFFKCGAHPTSDKETSVALHLIATNSRNITCITCTDVRSPVLVFQCNSRHVICLDCFHLYCVTRLNDWQFVHDPQLGYSLPCVAGCPNSLIKELHHFRILGEEQYNRYQQYGAEECVLQMGGVLCPRPGCGAGLLPEPDQRKVTCEGGNGLGCGFAFCRECKEAYHEGECSAVFEASGTTTQAYRVDERAAEQARWEAASKETIKKTTKPCPRCHVPVEKNGGCMHMKCPQPQCRLEWCWNCGCEWNRVCMGDHWFDV
modifications: YFP fusion
notes: YFP-Parkin mutation in RING1
cells with no mitochondria (HeLa cells [4]): 4.0±4% | YFP-Parkin (wild type or indicated mutant) colocalization with mitochondria, % of cells (HeLa cells [2]; 10 μM CCCP): 81.7±2.1% | translocation of YFP-Parkin variant to mitochondria-rich membrane fraction (HeLa cells [3]): increases localization in the membrane fraction

B2: R42P: YFP-Parkin with pathogenic UBL domain mutation (protein, UniProt O60260 1-465, looked up, variant R42P)
E3 ubiquitin-protein ligase …: MIVFVRFNSSHGFPVEVDSDTSIFQLKEVVAKRQGVPADQLPVIFAGKELRNDWTVQNCDLDQQSIVHIVQRPWRKGQEMNATGGDDPRNAAGGCEREPQSLTRVDLSSSVLPGDSVGLAVILHTDSRKDSPPAGSPAGRSIYNSFYVYCKGPCQRVQPGKLRVQCSTCRQATLTLTQGPSCWDDVLIPNRMSGECQSPHCPGTSAEFFFKCGAHPTSDKETSVALHLIATNSRNITCITCTDVRSPVLVFQCNSRHVICLDCFHLYCVTRLNDRQFVHDPQLGYSLPCVAGCPNSLIKELHHFRILGEEQYNRYQQYGAEECVLQMGGVLCPRPGCGAGLLPEPDQRKVTCEGGNGLGCGFAFCRECKEAYHEGECSAVFEASGTTTQAYRVDERAAEQARWEAASKETIKKTTKPCPRCHVPVEKNGGCMHMKCPQPQCRLEWCWNCGCEWNRVCMGDHWFDV
modifications: YFP fusion
notes: YFP-Parkin with pathogenic UBL domain mutation
cells with no mitochondria (HeLa cells [4]): 22.0±2.0% | YFP-Parkin (wild type or indicated mutant) colocalization with mitochondria, % of cells (HeLa cells [2]; 10 μM CCCP): 34±5.3% | translocation of YFP-Parkin variant to mitochondria-rich membrane fraction (HeLa cells [3]): No membrane translocation was detectable

B3: C332S: YFP-Parkin engineered mutation in conserved RING cysteine (protein, UniProt O60260 1-465, looked up, variant C332S)
E3 ubiquitin-protein ligase …: MIVFVRFNSSHGFPVEVDSDTSIFQLKEVVAKRQGVPADQLRVIFAGKELRNDWTVQNCDLDQQSIVHIVQRPWRKGQEMNATGGDDPRNAAGGCEREPQSLTRVDLSSSVLPGDSVGLAVILHTDSRKDSPPAGSPAGRSIYNSFYVYCKGPCQRVQPGKLRVQCSTCRQATLTLTQGPSCWDDVLIPNRMSGECQSPHCPGTSAEFFFKCGAHPTSDKETSVALHLIATNSRNITCITCTDVRSPVLVFQCNSRHVICLDCFHLYCVTRLNDRQFVHDPQLGYSLPCVAGCPNSLIKELHHFRILGEEQYNRYQQYGAEECVLQMGGVLSPRPGCGAGLLPEPDQRKVTCEGGNGLGCGFAFCRECKEAYHEGECSAVFEASGTTTQAYRVDERAAEQARWEAASKETIKKTTKPCPRCHVPVEKNGGCMHMKCPQPQCRLEWCWNCGCEWNRVCMGDHWFDV
modifications: YFP fusion
notes: YFP-Parkin engineered mutation in conserved RING cysteine
recruitment of mutant YFP-Parkin to mitochondria (HeLa cells [2]; HeLa, 10 μM CCCP, 24 hours): Mitochondrial recruitment was seen | recruitment of mutant YFP-Parkin to depolarized mitochondria (HeLa cells [2]; HeLa, CCCP 1 hr): completely disrupt | translocation of YFP-Parkin variant to mitochondria-rich membrane fraction (HeLa cells [3]): No membrane translocation was detectable

From patent US20120277286A1, “COMPOSITIONS AND METHODS FOR THE TREATMENT OR PREVENTION OF MITOCHONDRIAL DISEASES” (The Government of the USA, as represented by the Secretary, …, priority 2009, published 2012)
